# From the Immune Epitope Database (IEDB)
# Experiments:
# [1] = biological target: HLA-A*02:01; assay: IEDB peptide-MHC binding, cellular MHC/competitive/fluorescence; ≥ and ≤ were set here for values at or beyond the usual limits of such assays; conditions: source organism: Mycobacterium tuberculosis
# [2] = biological target: HLA-A*11:01; assay: IEDB peptide-MHC binding, purified MHC/direct/fluorescence; filed as Kd, often an IC50 or EC50 that approximates it; ≥ and ≤ were set here for values at or beyond the usual limits of such assays; conditions: source organism: Vibrio cholerae
# [3] = biological target: HLA-B*27:05; assay: as above
# [4] = biological target: HLA-A*01:01; assay: as above
# [5] = biological target: HLA-B*44:02; assay: as above; conditions: source organism: Vibrio cholerae V52
# [6] = biological target: HLA-B*18:01; assay: as above
# [7] = biological target: HLA-B*40:01; assay: as above
# [8] = biological target: HLA-B*48:01; assay: as above
# [9] = biological target: HLA-B*57:01; assay: as above
# [10] = biological target: HLA-B*46:01; assay: as above
# [11] = biological target: HLA-A*23:01; assay: as above; conditions: source organism: Vibrio cholerae V52
# [12] = biological target: HLA-A*24:03; assay: as above; conditions: source organism: Vibrio cholerae V52
# [13] = biological target: HLA-A*02:12; assay: as above; conditions: source organism: Vibrio cholerae V52
# [14] = biological target: HLA-A*69:01; assay: as above
# [15] = biological target: HLA-B*15:09; assay: as above; conditions: source organism: Vibrio cholerae V52
# [16] = biological target: HLA-B*38:01; assay: as above
# [17] = biological target: HLA-B*58:01; assay: as above
# [18] = biological target: HLA-B*51:01; assay: as above; conditions: source organism: Vibrio cholerae V52
# [19] = biological target: HLA-B*15:01; assay: as above
# [20] = biological target: HLA-A*30:01; assay: as above; conditions: source organism: Vibrio cholerae V52
# [21] = biological target: HLA-A*29:02; assay: as above; conditions: source organism: Vibrio cholerae V52
# [22] = biological target: HLA-A*02:19; assay: as above; conditions: source organism: Vibrio cholerae V52
# [23] = biological target: HLA-B*39:01; assay: IEDB peptide-MHC binding, purified MHC/competitive/fluorescence; filed as Kd, often an IC50 or EC50 that approximates it; ≥ and ≤ were set here for values at or beyond the usual limits of such assays; conditions: source organism: Vibrio cholerae MO10
# [24] = biological target: HLA-A*03:01; assay: as above; conditions: source organism: Vibrio cholerae MO10
# [25] = biological target: HLA-A*02:03; assay: as above
# [26] = biological target: HLA-B*08:01; assay: as above; conditions: source organism: Vibrio cholerae MO10
# [27] = biological target: HLA-B*15:17; assay: as above; conditions: source organism: Vibrio cholerae MO10
# [28] = biological target: HLA-A*02:01; assay: as above; conditions: source organism: Vibrio cholerae MO10
# [29] = biological target: HLA-A*31:01; assay: as above; conditions: source organism: Vibrio cholerae MO10
# [30] = biological target: HLA-C*06:02; assay: IEDB peptide-MHC binding, purified MHC/direct/fluorescence; filed as Kd, often an IC50 or EC50 that approximates it; ≥ and ≤ were set here for values at or beyond the usual limits of such assays
# [31] = biological target: HLA-A*24:02; assay: IEDB peptide-MHC binding, purified MHC/competitive/fluorescence; filed as Kd, often an IC50 or EC50 that approximates it; ≥ and ≤ were set here for values at or beyond the usual limits of such assays
# [32] = biological target: HLA-C*04:01; assay: IEDB peptide-MHC binding, purified MHC/direct/fluorescence; filed as Kd, often an IC50 or EC50 that approximates it; ≥ and ≤ were set here for values at or beyond the usual limits of such assays
# [33] = biological target: HLA-C*04:01; assay: IEDB peptide-MHC binding, purified MHC/competitive/fluorescence; filed as Kd, often an IC50 or EC50 that approximates it; ≥ and ≤ were set here for values at or beyond the usual limits of such assays; conditions: source organism: human gammaherpesvirus 4
# [34] = biological target: HLA-B*45:06; assay: as above; conditions: source organism: human gammaherpesvirus 4
# [35] = biological target: HLA-B*27:20; assay: as above; conditions: source organism: human gammaherpesvirus 4
# [36] = biological target: HLA-B*15:42; assay: as above; conditions: source organism: human gammaherpesvirus 4
# [37] = biological target: HLA-C*15:02; assay: IEDB peptide-MHC binding, purified MHC/direct/fluorescence; filed as Kd, often an IC50 or EC50 that approximates it; ≥ and ≤ were set here for values at or beyond the usual limits of such assays; conditions: source organism: Giardia lamblia ATCC 50803
# [38] = biological target: HLA-C*14:02; assay: as above; conditions: source organism: Giardia lamblia ATCC 50803
# [39] = biological target: HLA-B*39:01; assay: as above; conditions: source organism: Camelpox virus M-96
# [40] = biological target: HLA-A*68:02; assay: as above; conditions: source organism: Camelpox virus M-96
# [41] = biological target: HLA-B*07:02; assay: as above; conditions: source organism: Camelpox virus M-96
# [42] = biological target: HLA-A*26:01; assay: as above; conditions: source organism: Variola virus
# [43] = biological target: HLA-B*08:01; assay: as above; conditions: source organism: Variola virus
# [44] = biological target: HLA-B*15:17; assay: as above; conditions: source organism: Camelpox virus M-96
# [45] = biological target: HLA-B*08:02; assay: as above; conditions: source organism: Variola virus
# [46] = biological target: HLA-A*02:01; assay: as above; conditions: source organism: Camelpox virus M-96
# [47] = biological target: HLA-B*35:01; assay: IEDB peptide-MHC binding, purified MHC/competitive/fluorescence; filed as Kd, often an IC50 or EC50 that approximates it; ≥ and ≤ were set here for values at or beyond the usual limits of such assays; conditions: source organism: Vaccinia virus WR
# [48] = biological target: HLA-A*30:01; assay: as above; conditions: source organism: Vaccinia virus WR
# [49] = biological target: HLA-A*24:02; assay: IEDB peptide-MHC binding, purified MHC/direct/fluorescence; filed as Kd, often an IC50 or EC50 that approximates it; ≥ and ≤ were set here for values at or beyond the usual limits of such assays; conditions: source organism: Giardia lamblia ATCC 50803
# [50] = source organism: Vibrio cholerae
# [51] = source organism: Vibrio cholerae V52
# [52] = source organism: Bacillus anthracis str. A0488
# [53] = source organism: Giardia lamblia ATCC 50803
# [54] = source organism: Camelpox virus M-96
sequence,measurement,setting,value
AQLLTEFAI,IC50,[1],25 µM
EVNAHIHTM,Kd,[2],≥ 20 µM
same,Kd,[3]; [50],≥ 20 µM
same,Kd,[4]; [50],≥ 20 µM
same,Kd,[5],≥ 20 µM
same,Kd,[6]; [51],1.84 µM
same,Kd,[7]; [50],≥ 20 µM
same,Kd,[8]; [50],≥ 20 µM
same,Kd,[9]; [50],≥ 20 µM
same,Kd,[10]; [50],≥ 20 µM
same,Kd,[11],≥ 20 µM
same,Kd,[12],≥ 20 µM
same,Kd,[13],≥ 20 µM
same,Kd,[14]; [50],≤ 0.001 µM
same,Kd,[15],≥ 20 µM
same,Kd,[16]; [51],≥ 20 µM
same,Kd,[17]; [50],≥ 20 µM
same,Kd,[18],≥ 20 µM
same,Kd,[19]; [51],≥ 20 µM
same,Kd,[20],≥ 20 µM
same,Kd,[21],≥ 20 µM
same,Kd,[22],≥ 20 µM
same,Kd,[23],1.33 µM
same,Kd,[24],≥ 20 µM
same,Kd,[25]; source organism: Vibrio cholerae MO10,≥ 20 µM
same,Kd,[26],≥ 20 µM
same,Kd,[27],≥ 20 µM
same,Kd,[28],≥ 20 µM
same,Kd,[29],≥ 20 µM
IYPFHVQKI,Kd,[30]; [52],0.816 µM
same,Kd,[31]; [52],≤ 0.0001 µM
KYFIPVIEI,Kd,[32]; source organism: Homo sapiens,≥ 20 µM
RRYRRIYDL,Kd,[30]; source organism: human gammaherpesvirus 4,0.017 µM
same,Kd,[33],≥ 5 µM
same,Kd,[34],≥ 5 µM
same,Kd,[35],≤ 0.0001 µM
same,Kd,[36],≥ 5 µM
RYYLSFFHI,Kd,[37],≥ 20 µM
same,Kd,[30]; [53],≥ 20 µM
same,Kd,[38],0.03 µM
same,Kd,[31]; [53],0.0014 µM
TESDAIRTL,Kd,[39],0.118 µM
same,Kd,[40],≥ 20 µM
same,Kd,[3]; [54],≥ 20 µM
same,Kd,[4]; [54],≥ 20 µM
same,Kd,[6]; [54],0.017 µM
same,Kd,[7]; [54],0.0225 µM
same,Kd,[41],≥ 20 µM
same,Kd,[8]; [54],≥ 20 µM
same,Kd,[9]; [54],≥ 20 µM
same,Kd,[42],≥ 20 µM
same,Kd,[43],≥ 20 µM
same,Kd,[44],≥ 20 µM
same,Kd,[45],≥ 20 µM
same,Kd,[10]; [54],≥ 20 µM
same,Kd,[46],≥ 20 µM
same,Kd,[14]; [54],≥ 20 µM
same,Kd,[16]; source organism: Variola virus,3.77 µM
same,Kd,[17]; [54],≥ 20 µM
same,Kd,[19]; [54],≥ 20 µM
same,Kd,[25]; source organism: Vaccinia virus WR,≥ 20 µM
same,Kd,[47],3.71 µM
same,Kd,[48],≥ 20 µM
YWLNTPFLV,Kd,[32]; [53],≥ 20 µM
same,Kd,[49],≤ 0.001 µM
